Results from the RNAGym collection of RNA variant scans (doi:10.7554/elife.90254).

B1: LINE1-full (parent)
chain: UACGUAGGUGGUUUUCCCCUGAUAGUGCUAAGGGGGCCUGGAAGUUUGGACUGGGCAGAGCUCAACACAGCGUGGCAAAGUGGCUGUGGCUAGACUGCCUCUCUGGAUUCCUCGUCACUCAGCAGGGCAUCUCUGAGAGAAAUGCC

Variants of: B1
Assay: self-cleavage, relative activity (ratio to wild type); higher = more cleavage; in vitro, sequencing; the parent is a self-cleaving ribozyme

Variant | self-cleavage
A59G U73G | 0.12
C37A U45C | 1.01
U9C A64G | 0.45
A92G U100C | 0.14
G25C U115A | 1.02
U73A U130A | 1.83
A30U U104C | 1.31
U13C C66U | 0.14
G53U A142G | 1.2
U91A U119C | 0.84
C120U A129G | 1.84
A2G U62C | 0.09
G8U U130C | 1.66
G80A U104A | 1.86
A69U A124C | 0.02
U104C U119A | 2.16
A24U A64U | 0.35
U14G C66U | 0.06
C3U U119G | 0.98
U26G A79G | 0.53
U104A A141G | 1.43
U112C G135A | 1.44
U13C G36A | 1.2
C3U G82U | 0.88

Variant | self-cleavage
A30U U45G | 0.74
A50G G80A | 1.79
A121G A142G | 1.48
A79C U100C | 2.76
U109C A138G | 1.69
A92G U143C | 0.36
A31U U81A | 1.57
C3G A141G | 0.66
A94U U115A | 0.31
U39A G93A | 0.04
A50U C90U | 0.05
U9C A22U | 0.89
U52A C95A | 0.09
U26A G72U | 0.77
G40A A59U | 0.54
U108C A141G | 1.65
A69C U130C | 0.36
A59G A107G | 0.09
U46A G70A | 0.24
C19U U39A | 1.07
A67U U87C | 0.21
C18A U115G | 0.99
U91G U108C | 0
U87C G105A | 0.14

Variant | self-cleavage
G54A U115A | 0.64
G34C U143C | 2
U81A A129U | 2.57
U12A U104A | 1.19
U5A A22G | 0.73
G70A A107G | 0.08
U96C A136U | 0.15
U26A C133U | 1.01
U52C U112C | 1.5
C51U A59G | 0.09
A42G C101U | 1.75
U96C C146U | 0.15
A79U A136G | 1.96
A57G A140U | 1.05
U100A U102A | 0.49
U96G U108C | 0.13
A64U U119A | 0.34
U15C C120U | 1.72
A43G C118U | 1.19
U9C C146U | 1.1
U62A C131U | 0.02
U73C C76U | 2.52
U14A A50G | 1.25
U29A U132C | 0.59

Variant | self-cleavage
G114A A129U | 1.33
U12C A140G | 1.2
G32U A67U | 0.13
A42U A94U | 0.15
G21A G135A | 1.22
U47C U109C | 1.61
A138C | 0.76
U62A G127U | 0.02
U20C G49A | 1.54
A78U A129G | 2.49
G54A U109A | 0.35
A94U U134C | 0.32
U62A U96C | 0.06
A22G U85C | 0.27
U13C U91C | 0.99
A42U U62C | 0.04
U47A A124C | 1.18
A65G C90U | 0.03
A43G G97A | 0.04
U12A U85A | 0.15
G80U | 1.36
A64G A78G | 0.25
A42G A78G | 1.49
U45A A77U | 1.56

Variant | self-cleavage
A77G A140G | 1.7
U108C G126U | 2.03
A64U G72C | 0.25
U20A A64U | 0.36
A65G U108A | 0.04
U5G G34C | 0.94
C51U U134C | 1.74
U62C A67G | 0.09
A94U G144A | 0.4
U132C A138U | 1.48
A121U | 1.34
G33A U62C | 0.05
U62G A129G | 0.15
U102C U115C | 2.02
A65C U143C | 0.06
U100C A140U | 1.82
U15A G40A | 1.24
A64U A107G | 0.45
A65G A124U | 0.04
C118A | 1.11
U52A G88A | 0.12
U96C C113G | 0.11
U26C G105A | 1.32
U13C C84U | 0.11

Variant | self-cleavage
U62G C113U | 0.1
A57U C110U | 0.05
U45G A141G | 1.32
C76U U143C | 2.01
G75A U81C | 0.67
C3U U132C | 1.1
C51U A69G | 0.66
U47G A65C | 0
U29C A59G | 0.16
U13A C63U | 0.35
A22U A92G | 0.05
U104G U115A | 0.87
G60C U73C | 0.04
C16A A141G | 1.35
U81C U130G | 1.84
U102A U112C | 0.96
A2G A136G | 0.82
C51U A94G | 0.22
U29A A64G | 0.48
G74A U104A | 0.75
A64G | 0.25
U5A U52A | 0.52
C76U C99U | 0.99
U134C A141G | 1.41

Variant | self-cleavage
U12A A138G | 1.37
U12C A24G | 1.13
A43G A138G | 1.34
C71A U134A | 0.18
U9A U12C | 0.86
U132C A140G | 1.65
U62C G105A | 0.03
U12C U26G | 0.58
A2U A43G | 1.07
U29A U143A | 0.84
U29C U85C | 0.28
G53U U108C | 1.56
U14C C16A | 0.84
G125U | 1.23
G4A A94G | 0.21
G105A A136G | 1.28
U81A U119A | 2.53
A77C U130C | 1.89
A22U U115A | 0.63
A30G U112A | 1.1
U20A G41U | 0.96
A24U U81C | 1.24
A43G A57C | 0.09
